Assay results as given in US20260242478A1 (published 2026).
Where no end group is shown, it is not given here.

B1: Phage-2087 (peptide)
peptide: FEKWCIPSWMCSGP
modifications: cysteine pairing not given here; also: fused to phage pIII, pIII sequence and linker not given here
notes: Clonal phage of the Peptide-180 library
B2: Phage-2088 (peptide)
peptide: VEKWCIPQWMCAEM
modifications: cysteine pairing not given here; also: fused to phage pIII, pIII sequence and linker not given here
notes: as for B1
B3: Phage-2089 (peptide)
peptide: VEKWCIPTWMCQAM
modifications: cysteine pairing not given here; also: fused to phage pIII, pIII sequence and linker not given here
notes: as for B1
B4: Phage-2090 (peptide)
peptide: IVKWCVPEWMCEGT
modifications: cysteine pairing not given here; also: fused to phage pIII, pIII sequence and linker not given here
notes: as for B1
B5: Phage-2091 (peptide)
peptide: ETRWCVPEWMCYGI
modifications: cysteine pairing not given here; also: fused to phage pIII, pIII sequence and linker not given here
notes: as for B1
B6: Phage-2099 (peptide)
peptide: LGNWCIPEWMCYGM
modifications: cysteine pairing not given here; also: fused to phage pIII (clonal phage display)
notes: as for B1
B7: Phage-2077 (peptide-180 library clone, SEQ ID NO: 2393) (peptide)
peptide: AEKLCIPPWMCMLS
notes: Tested as clonal phage supernatant; not shown: pIII filament protein of the bacteriophage to which the peptide is fused for display
B8: Phage-2078 (peptide-180 library clone, SEQ ID NO: 2394) (peptide)
peptide: IEKWCIPEWMCEYT
notes: as for B7
B9: Phage-2079 (peptide-180 library clone, SEQ ID NO: 2395) (peptide)
peptide: DWRLCIPEWMCERL
notes: as for B7
B10: Phage-2080 (peptide-180 library clone, SEQ ID NO: 2396) (peptide)
peptide: WDNWCTPLWMCQGF
notes: as for B7
B11: Phage-2081 (peptide-180 library clone, SEQ ID NO: 2397) (peptide)
peptide: QVNWCIPPWMCAGL
modifications: cysteine pairing not given here; also: fused to phage pIII, pIII sequence and linker not given here
notes: as for B7
B12: Phage-2082 (peptide-180 library clone, SEQ ID NO: 2398) (peptide)
peptide: PEKLCIPDWMCHWD
notes: as for B7
B13: Phage-2083 (peptide-180 library clone, SEQ ID NO: 2399) (peptide)
peptide: WSNWCTPRWVCKTI
notes: as for B7
B14: Phage-2084 (peptide-180 library clone, SEQ ID NO: 2400) (peptide)
peptide: SEHWCVPSWMCYGF
notes: as for B7
B15: Phage-2085 (peptide-180 library clone, SEQ ID NO: 2401) (peptide)
peptide: ESKWCTPPWMCMTD
notes: as for B7
B16: Phage-2086 (peptide-180 library clone, SEQ ID NO: 2402) (peptide)
peptide: VHQMCQPWWMCWET
notes: as for B7

The binders below were run against T1, Anti-PSMA Fab (SEQ ID NOs: 19, 20) (assay: phage binding ELISA on captured PSMA Fab, wells pre-incubated with PSMA antigen as competitor).
T1 construct: In the phage ELISA the Fab was biotinylated and captured on neutravidin coated plates; also called 006 PSMA Fab
Procedure: (§1) Clonal phage were harvested as crude supernatants and screened via standard ELISAs. […] Prior to the addition of clonal phage. wells were incubated with blocking buffer and PSMA antigen or blocking buffer alone. Without washing or aspirating, clonal phage supernatants were then added to the wells and incubated for a short time. Wells were then washed followed by detection of bound phage using a horse radish conjugated anti-M13 antibody.

Binder | Anti-PSMA Fab signal in the presence of PSMA
B1 | 0.097
B2 | 0.0696
B3 | 0.0844
B4 | 0.0687
B5 | 0.0943
FEKWCIPAWMCAAV (Clonal phage of the Peptide-180 library) [Phage-2092] | 0.112
VETWCTPRWMCEGF (Clonal phage of the Peptide-180 library) [Phage-2093] | 0.0881
VVHWCIPSWMCTEN (Clonal phage of the Peptide-180 library) [Phage-2094] | 0.0941
WGKLCIPEWMCTTQ (Clonal phage of the Peptide-180 library) [Phage-2095] | 0.0687
PDHWCIPSWMCMSQ (Clonal phage of the Peptide-180 library) [Phage-2096] | 0.0974
QGIMCIPEWMCSAI (Clonal phage of the Peptide-180 library) [Phage-2097] | 0.0664
IPKLCKPSWMCLFY (Clonal phage of the Peptide-180 library) [Phage-2098] | 0.185
B6 | 0.078
INMWCIPAWMCQNT (Clonal phage of the Peptide-180 library) [Phage-2100] | 0.128
EAKWCIPAWMCSGV (Clonal phage of the Peptide-180 library) [Phage-2101] | 0.0654

Each binder was assayed against T2, Anti-PSMA Fab (SEQ ID NOs: 19, 20) (assay: phage binding ELISA; PSMA Fab on plate pre-incubated with PSMA antigen as competitor, anti-M13 HRP detection;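 note: crude clonal phage supernatants added without washing to wells preincubated with PSMA in blocking buffer, compared with wells receiving blocking buffer only, then bound phage detected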).
T2 construct: In the phage ELISA the PSMA Fab was biotinylated and captured on neutravidin coated plates; also called 006 PSMA Fab
Procedure: as §1

Binder | Anti-PSMA Fab signal in the presence of PSMA
B7 | 0.101
B8 | 0.0826
B9 | 0.0875
B10 | 0.0794
B11 | 0.0898
B12 | 0.0951
B13 | 0.0752
B14 | 0.0957
B15 | 0.0945
B16 | 0.0749

These binders were tested against T1, Anti-PSMA Fab (SEQ ID NOs: 19, 20) (assay: phage binding ELISA; biotinylated PSMA Fab captured on neutravidin plate, bound phage detected with anti-M13-HRP).
Procedure: as §1

Binder | Anti-PSMA Fab (SEQ ID NOs: 19, 20) signal
B1 | 1.75
B2 | 1.74
B3 | 1.74
B4 | 1.74
B5 | 1.74
FEKWCIPAWMCAAV (Clonal phage of the Peptide-180 library) [Phage-2092] | 1.74
VETWCTPRWMCEGF (Clonal phage of the Peptide-180 library) [Phage-2093] | 1.74
VVHWCIPSWMCTEN (Clonal phage of the Peptide-180 library) [Phage-2094] | 1.74
WGKLCIPEWMCTTQ (Clonal phage of the Peptide-180 library) [Phage-2095] | 1.74
PDHWCIPSWMCMSQ (Clonal phage of the Peptide-180 library) [Phage-2096] | 1.74
QGIMCIPEWMCSAI (Clonal phage of the Peptide-180 library) [Phage-2097] | 1.73
IPKLCKPSWMCLFY (Clonal phage of the Peptide-180 library) [Phage-2098] | 1.73
B6 | 1.73
INMWCIPAWMCQNT (Clonal phage of the Peptide-180 library) [Phage-2100] | 1.73
EAKWCIPAWMCSGV (Clonal phage of the Peptide-180 library) [Phage-2101] | 1.73

The binders below were run against T2, Anti-PSMA Fab (SEQ ID NOs: 19, 20) (assay: phage binding ELISA; biotinylated PSMA Fab on neutravidin plate, clonal phage supernatant, anti-M13 HRP detection;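 note: wells were preincubated with blocking buffer either containing PSMA antigen or without it before crude phage supernatant was added, briefly incubated, then washed prior to detection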).
Procedure: as §1

Binder | Anti-PSMA Fab (SEQ ID NOs: 19, 20) signal
B7 | 1.76
B8 | 1.75
B9 | 1.75
B10 | 1.75
B11 | 1.75
B12 | 1.75
B13 | 1.75
B14 | 1.75
B15 | 1.75
B16 | 1.75

These binders were tested against T3, Anti-PSMA Fab (SEQ ID NOs: 19, 20) (assay: phage binding ELISA; biotinylated anti-PSMA Fab on neutravidin plate, PSMA antigen as competitor, anti-M13 HRP detection).
T3 construct: Biotinylated and captured on neutravidin coated plates in the phage ELISA; also called 006 PSMA Fab
Procedure: as §1

Binder | Anti-PSMA Fab signal in the presence of PSMA
MERWCIPEWMCATT [Phage-2102] | 0.0637
SENWCIPSWMCQGF [Phage-2103] | 0.0813
GVNWCIPDWMCVGM [Phage-2104] | 0.0692
EWKWCTPSWMCEDA [Phage-2105] | 0.0652
QEKWCIPMWMCESL [Phage-2106] | 0.0796
VHNWCIPSWMCEGL [Phage-2107] | 0.0717
SAMLCKPQWMCDGF [Phage-2108] | 0.0821
LENWCKPAWMCRGS [Phage-2109] | 0.0678
FEKWCIPPWMCAVH [Phage-2110] | 0.138
VVKWCSPPWMCDFL [Phage-2111] | 0.0713
VDPLCRPAWMCFGM [Phage-2112] | 0.0801
MNTWCKPAWMCEGL [Phage-2113] | 0.127
SERWCIPEWMCSMP [Phage-2114] | 0.0625
GEIWCIPRWMCESF [Phage-2115] | 0.0672
WENWCTPSWMCSVL [Phage-2116] | 0.118

These binders were tested against T3, Anti-PSMA Fab (SEQ ID NOs: 19, 20) (assay: phage binding ELISA; biotinylated anti-PSMA Fab on neutravidin plate, clonal phage supernatant, anti-M13 HRP detection).
Procedure: as §1

Binder | Anti-PSMA Fab (SEQ ID NOs: 19, 20) signal
MERWCIPEWMCATT [Phage-2102] | 1.73
SENWCIPSWMCQGF [Phage-2103] | 1.73
GVNWCIPDWMCVGM [Phage-2104] | 1.73
EWKWCTPSWMCEDA [Phage-2105] | 1.73
QEKWCIPMWMCESL [Phage-2106] | 1.73
VHNWCIPSWMCEGL [Phage-2107] | 1.73
SAMLCKPQWMCDGF [Phage-2108] | 1.72
LENWCKPAWMCRGS [Phage-2109] | 1.72
FEKWCIPPWMCAVH [Phage-2110] | 1.72
VVKWCSPPWMCDFL [Phage-2111] | 1.72
VDPLCRPAWMCFGM [Phage-2112] | 1.72
MNTWCKPAWMCEGL [Phage-2113] | 1.72
SERWCIPEWMCSMP [Phage-2114] | 1.72
GEIWCIPRWMCESF [Phage-2115] | 1.72
WENWCTPSWMCSVL [Phage-2116] | 1.72
